Data from patent US7862994.

Target: human CD4 on the surface of cells (HeLa-CD4+, C8166, PM1, primary human CD4+ T lymphocytes) (human) (UniProt P01730)
Assay: cell-based or functional assay

HIV-1JR-FL gp120/gp41 expressed on HeLa cells (HeLa-envJR-FL+)
% RET, fusion of HeLa-envJR-FL+ with PM1 cells, no inhibitor: 7.5 % RET

HIV-1LAI gp120/gp41 expressed on HeLa cells (HeLa-envLAI+) (from UniProt P03377 33-861; P03377 33-861)
% RET, fusion of HeLa-envLAI+ with C8166 cells, no inhibitor: 13 % RET | % RET, fusion of HeLa-envLAI+ with HeLa-CD4+ cells, no inhibitor: 7.3 % RET

OKT4 (mouse monoclonal antibody that binds CD4, Ortho Diagnostic Systems)
% inhibition of RET at 0.2 µg/ml, HeLa-env+ + HeLa-CD4+ cells, cuvette method: 0% | % inhibition of RET at 2.0 µg/ml, HeLa-env+ + HeLa-CD4+ cells, cuvette method: 0%

murine MAb OKT4a (anti-CD4 monoclonal antibody, Ortho Diagnostic Systems)
% Inhibition of RET, fusion of HeLa-envJR-FL with LW5 primary CD4+ T cells, OKT4A at 3 ug/ml: 100% | % Inhibition of RET, fusion of HeLa-envLAI with LW5 primary CD4+ T cells, OKT4A at 3 ug/ml: 100% | % RET, fusion of HeLa-envJR-FL+ with PM1 cells in the presence of OKT4A (0.3 µg/ml): 0.7 % RET | % RET, fusion of HeLa-envLAI+ with C8166 cells in the presence of OKT4A (0.3 µg/ml): 0.6 % RET | % RET, fusion of HeLa-envLAI+ with HeLa-CD4+ cells in the presence of OKT4A (0.3 µg/ml): 0.4 % RET | % inhibition of RET at 0.2 µg/ml, HeLa-env+ + HeLa-CD4+ cells, cuvette method: 65%
